Experimental data as given in publication PMC12152837, “Semaglutide Aggregates into Oligomeric Micelles and Short Fibrils in Aqueous Solution” (Biomacromolecules, 2025).
Several values for one entry are separate records, joined by “and”; a condition that tells them apart may be missing. Equal entries are not always repeated.

Assays:
[1] = ESI-MS integrity and appearance of solution after aging; type: physicochemical
Experimental: Semaglutide was purchased from Bioserv (Calibre Scientific, Rotherham, UK). The purity by HPLC was >95%, and it was supplied in nonsalt (base) form. The molar mass is M = 4115.7 g mol^–1 (4113.6 g mol^–1 expected). Purity (by HPLC) is >98%.
(§1) Semaglutide powder was weighed, and the samples were prepared in glass vials using ultrapure water. To monitor the aggregation and stability, some samples were left to age up to 40 days in the fridge at 4 °C, protected from the light. The pH was observed just after preparation and after 40 days of incubation at 4 °C using pH strips due to the small volume of sample available. No evidence of microemulsion formation was observed. ^20 pH values were recorded as follows: 1 wt % fresh pH 5.5, 1 wt % aged: pH 7, 0.1 wt % fresh: pH 6.5, 0.1 wt % aged: pH 7. It is notable that the pH crosses the pK a of the N-terminal histidine (pK a = 6 is the accepted value for isolated histidine) for the more concentrated solution upon aging.

[2] = Small-angle X-ray scattering (SAXS) of aggregates in water; type: physicochemical; conditions: for effective charge modulus per micelle z eff: Hayter–Penfold structure factor fit; for micelle inner core radius Ri / micelle outer radius Ro ± Gaussian polydispersity: core-shell sphere form factor
Experimental: as §1
SAXS experiments were performed on beamline B21 at Diamond Light Source (Harwell, UK) and SWING at synchrotron SOLEIL (Gif-sur-Yvette, France) and on the labSAXS instrument at Diamond Light Source.
On B21, the sample solutions were loaded into the 96-well plate of an EMBL BioSAXS robot and then injected via an automated sample exchanger into a quartz capillary (1.8 mm internal diameter) in the X-ray beam. The quartz capillary was enclosed in a vacuum chamber to avoid parasitic scattering. After the sample was injected into the capillary and reached the X-ray beam, the flow was stopped during the SAXS data acquisition. Beamline B21 operates with fixed camera length (3.9 m) and fixed energy (12.4 keV). The images were captured by using a PILATUS 2 M detector. Data processing was performed using the dedicated beamline software ScÅtter. […]
SAXS experiments (extending to higher q) were also performed using a lab-based Xeuss 3.0 (Xenocs, France) instrument at Diamond Light Source, equipped with a liquid gallium MetalJet X-ray source (Excillum, Sweden) with an energy of 9.24 keV, corresponding to a wavelength of 1.34 Å. SAXS patterns were measured for 28800 s with an incident X-ray photon flux of roughly 4.06 × 10^6 ph/s on an EIGER2 R 1M detector (Dectris, Switzerland), and the sample-to-detector distance was set to 315 mm, giving a q range of 0.17–1.1 nm^–1. The beam size is roughly 0.4 × […] on the sample. The sample environment was a custom-designed low-noise flow-through cell having a thickness of roughly 0.7 mm and an area of 1.1 mm × 1.1 mm. The window material is silicon nitride. Silver behenate (layer spacing, d = 58.38 Å) was used to calibrate the SAXS data. SAXS images were analyzed using the IDL-based AXcess software package or software DAWN.
The association number of the micelle can be obtained in a model-independent fashion from the forward scattering intensity of the SAXS data in dilute solution. , The measured synchrotron SAXS data presented here is in absolute units (cm^–1) and the forward scattering (at q = 0) can be written as 1 I(0)=cmicMmic[r0vp(ρl−ρ0)]^2/NA Here, c mic is the concentration of micelles, M mic is the micelle molar mass, r 0 is the classical electron radius [0.28179 × 10^–12 cm e ^–1], v p is the partial specific volume, and ρl and ρ0 represent the lipopeptide and solvent (water) electron density. […] Rearranging eq gives 2 Mmic=I(0)NA/cmic[r0vp(ρl−ρ0)]^2 […]
Table S1. Fit parameters to the SAXS data in Fig.2b using a core-shell sphere form form factor with the Hayter-Penfold RMSA structure factor.1 The monodisperse approximation to factor the form and structure factors of isotropic solutions of centrosymmetric particles is assumed. Fitting performed using SASfit.2-3 […]
(Diamond synch.) (Diamond synch.) (Diamond synch.) (Lab SAXS)b […]
Key: Core-Shell Sphere Form factor: Ro: outer radius (σc Gaussian polydispersity in R0), Ri: inner radius, µ: ratio of scattering contrast of inner core/outer core, η: scattering contrast of core. Structure factor: RHS, hard sphere radius, φ: effective volume fraction zeff: effective charge modulus, I: ionic strength (temperature fixed at T = 293 K).
Gaussian coils: Rg: radius of gyration, Ic: intensity. Background: BG (constant). […]

[3] = Cryogenic-TEM imaging of aggregates; type: physicochemical
Experimental: as §1, with “To monitor the aggregation and stability, some samples were left to age up to 40 days in the fridge at 4 °C, protected from the light.” left out
Imaging was carried out using a field emission cryo-electron microscope (JEOL JEM-3200FSC), operating at 200 kV. Images were taken in bright field mode and using zero loss energy filtering (omega type) with a slit width of 20 eV. Micrographs were recorded using a Gatan Ultrascan 4000 CCD camera. The specimen temperature was maintained at −187 °C during the imaging. Vitrified specimens were prepared by using an automated FEI Vitrobot device using Quantifoil 3.5/1 holey carbon copper grids with a hole size of 3.5 μm. Just prior to use, grids were plasma cleaned using a Gatan Solarus 9500 plasma cleaner and then transferred into the environmental chamber of a FEI Vitrobot at room temperature and 100% humidity. Thereafter, 3 μL of sample solution was applied on the grid, and it was blotted twice for 5 s and then vitrified in a 1/1 mixture of liquid ethane and propane at a temperature of −180 °C. The grids with vitrified sample solution were maintained at liquid nitrogen temperature and then cryo-transferred to the microscope.

[4] = pH of aqueous solutions (pH strips); type: physicochemical
Experimental: as §1

Caco-2 cells = test: Transepithelial electrical resistance (TEER) transwell permeability assay; type: cell-based; conditions: Caco-2 monolayer on transwell, DMEM without serum, 37 °C, pH 7.4, duplicate wells, relative to DMEM control
Experimental: As a model of the gut epithelium, 1.5 × 10^5 Caco-2 (ATCC, EUA) immortalized colorectal adenocarcinoma cells were seeded into 12 mm Millicell hanging cell culture transwells, with a PET lower membrane permeated by pores 0.4 μm in diameter. The transwells were then inserted into a 12-well plate to create a bicameral chamber system separated by the transwell PET membrane. The cells were cultivated until reaching confluence in DMEM supplemented with 10% FBS for at least 3 weeks before starting the TEER assay in order to form semipermeable membranes composed of Caco-2 cells separating the two chambers. For the TEER assay, a multimeter (TLC Electrical, UK). The microelectrodes were immobilized in a chopstick pattern and coated in carbon conductive ink to prevent corrosion, similar to previous reports using low-cost Volt-ohmeters for TEER. −
The resistance for the Caco-2 membrane tissue (R tissue) is measured in Ohms (Ω) and defined as Rtissue=RTotal−RBlank
This represents the total resistance of the system containing the semipermeable membranes minus the initial resistance from the cell containing only media or PBS. […]
The area calculated for the transwells used in this assay is M Area (cm^2) = 1.12 cm^2. […] The TEER was calculated and is reported as % values relative to controls incubated without semaglutide.

[5] = Nile red fluorescence assay of critical micelle concentration; type: physicochemical; conditions: 45-day aged sample in water, stored at 4 °C; 5 μM Nile red, λexc 550 nm, peak fluorescence intensity at 635 nm versus concentration
Experimental: Fluoroscence of tryptophan in semaglutide was excited at λexc= 295 nm, and fluorescence emission spectra were measured using a Cary Eclipse spectrofluorometer (Agilent, Didcot, UK) with excitation and emission slits of 5 nm. The spectra were recorded from 300 to 600 nm. The temperature was maintained at 20 °C during the measurements. This protocol was performed using fresh Semaglutide samples and then repeated using the same samples stored at 4 °C for 40 days, protected from the light. To determine the critical aggregation concentration (CAC) of semaglutide using Nile red, Semaglutide samples (45-day aged) were prepared in 5 μM of Nile red. The wavelength for excitation was set at λexc = 550 nm with 5 nm windows, and spectra were collected from 570 to 750 nm.
SI Fig.S13. Nile red fluorescence assay of critical micelle concentration (CMC) for a
45-day aged sample. (a) Plot of peak fluorescence intensity (l = 635 nm) versus
concentration, (b) Original fluorescence spectra.
Fluorescence Intensity (l635 nm)
Fluorescence intensity / arb. units […]

[6] = 0.5 wt % in water, aged 40 days, Diamond synchrotron
[7] = 0.5 wt %, aged 40 days, Diamond synchrotron, fixed for the fits
[8] = 1 wt % in water, aged 40 days, Diamond synchrotron
[9] = 1 wt %, aged 40 days, Diamond synchrotron, fixed for the fits

With Semaglutide the “chemical stability in solution (degradation)” value ([1]; aqueous solution, 40 days of aging at 4 °C protected from light, ESI-MS) was “No evidence for degradation in solution was observed”, the appearance of solutions ([1]; solutions in pure water prepared in glass vials) was “transparent” and the “radius of gyration Rg (Gaussian coils)” value ([2]; 0.1 wt % in water, aged 40 days, Diamond synchrotron) was 1.57 nm. The “micelle molar mass M mic” value ([2]; 0.1 wt % in water, aged 40 days, from SAXS forward scattering I(0) = 0.0025 cm^–1) was 9111 g mol^–1, the association number p ([2]; 0.1 wt % in water, aged 40 days, from SAXS forward scattering I(0), p = Mmic/Mmol) was “≈ 2.2” and the “hard sphere radii R HS from the structure factor” value ([2]; 0.5 and 1 wt % aged solutions) was 2.23–2.54 nm. For the same substance, the “hard sphere radius RHS” value [2, 6] was 2.23 nm, the “effective charge modulus per micelle z eff” value [2, 6] was 9.81 and the “micelle inner core radius Ri” value [2, 7] was 1.50 nm. For the same substance, the “micelle outer radius Ro ± Gaussian polydispersity” value [2, 7] was 2.31±0.59 nm, the “hard sphere radius RHS” value [2, 8] was 2.54 nm and the “effective charge modulus per micelle z eff” value [2, 8] was 10.8. The association number p ([2]; 1 wt % in water, aged, rough estimate from the ratio of low-q intensity for 1 and 0.1 wt %) was 12–15, the “hard sphere radius RHS” value ([2]; 1 wt %, Lab SAXS) was 2.54 nm and the “radius of gyration Rg (additional Gaussian coil term)” value ([2]; 1 wt %, Lab SAXS, term for high q scattering) was 0.8 nm. The “effective charge modulus per micelle z eff” value ([2]; 1 wt %, Lab SAXS) was 9.00, the “micelle inner core radius Ri” value ([2]; 1 wt %, Lab SAXS) was 1.50 nm and the “micelle outer radius Ro ± Gaussian polydispersity” value ([2]; 1 wt %, Lab SAXS) was 2.31±0.59 nm. The “micelle inner core radius Ri” value [2, 9] was 1.50 nm, the “micelle outer radius Ro ± Gaussian polydispersity” value [2, 9] was 2.31±0.59 nm and the micelle radius ([2]; as determined from cryo-TEM and SAXS, aged solutions at sufficiently high concentration) was 2 nm. The “diameter of micelle-like structures” value ([3]; 1 wt % in water, aged 40 days at 4 °C, cryo-TEM) was under 5 nm, the “morphology by cryo-TEM, further aging” value ([3]; 1 wt % sample aged 79 days, compared to the 40-day aged sample) was “no further change in morphology” and the “morphology by cryo-TEM” value ([3]; freshly dissolved 1 wt % solution in water) was “irregular clustered morphology”. The pH of solution ([4]; 0.1 wt % in ultrapure water, aged 40 days at 4 °C) was 7, the pH of solution ([4]; 0.1 wt % in ultrapure water, fresh) was 6.5 and the pH of solution ([4]; 1 wt % in ultrapure water, aged 40 days at 4 °C) was 7. The pH of solution ([4]; 1 wt % in ultrapure water, fresh) was 5.5, the “TEER, % of the initial TEER” value (Caco-2 cells; aged (40 days, 4 °C) semaglutide 0.02 wt %, after 2–4 h) was “around 90%” and the “TEER, % of the initial TEER” value (Caco-2 cells; fresh semaglutide 0.02 wt %, after 30 min) was “around 80%”. For the same substance, the “critical micelle concentration (CMC)” value [5] was 0.06 wt % and 0.06 ± 0.005 wt %.
